Experimental findings from the DeepSol protein solubility set are described below.

This series can be described thus: soluble on expression in E. coli; label from the status in PepcDB or PDB records.
As to “MGKGDPNKPRGKMSSYAFFVQTCREEHKKKHPDSSVNFAEFSKKCSERWKTMSAKEKSKFEDLAKSDKARYDREMKNYVPPKGDKKGKKKDPNAPKRPPSAFFLFCSEHRPKIKSEHPGLSIGDTAKKLGEMWSEQSAKDKQPYEQKAAKLKEKYEKDIAAYRAKGKSEVGKKGPGRPTGSKKKNEPEDEEEEEEEEDDEDEEEEDEDEE”, the “soluble on expression in E. coli” value is reported as “soluble”.
The entry for “AIATYPTNLEIIGGQGGSSFSFTGENNGASLEKIWVWVGGWQIKAVRAWLSDGRDETFGVPSGSHQEYVFTPGECFTSLSLWGNGAGTRLGAIKFKTNKGGEFFAHMTSWGLKTEYPMDVGSGYCLGIVGRGGSDIDCMGFMFLNAVQSTVLTNVNYPTINQLIPKVATEEIKSVSFENKTSVKQEQKVETSKKVIKTSSWSMTKSFSSTFSVEVSAGIPEIAEVSTGFSISFGVESTHSLEQTDEKNETLTTTVEVPPKKKVDVHITIGRASFDLPYTGTVKITCKNGSVLQYETKGQYKGVAYTDIKVNTVEKDL” is “soluble”; for “STLEIAGLVRKNLVQFGVGEKNGSVRWVMNALGVKDDWLLVPSHAYKFEKDYEMMEFYFNRGGTYYSISAGNVVIQSLDVGFQDVVLMKVPTIPKFRDITQHFIKKGDVPRALNRLATLVTTVNGTPMLISEGPLKMEEKATYVHKKNDGTTVDLTVDQAWRGKGEGLPGMCGGALVSSNQSIQNAILGIHVAGGNSILVAKLVTQEMFQNIDKKIESQ” it is “soluble”; for “MAEEPKGVPLSELSLQQLGELQKNCEQELNFFQESFNALKGLLTRNEKSISALDDVKIATAGHTALIPLSESLYIRAELSDPSKHLVEIGTGYFVELDREKAKAIFDRKKEHITKQVETVEGILKEKRRTRAYISDAFQTKVQSQLATMNTQ” it is “not soluble”.
The entry for “MSLKTKLIVVLGPTAVGKTALGIKLAQQFHGEIISGDSQQVYRKLDIGTAKATAAEQAAVPHHLIDVREVDENYSAFDFVQEATKEIANICARGYLPIIVGGTGLYLQSLLEGYHLGGQVDHEAVLAYRRELETLSDTELSQLVETKQIVMTEPNRRRLMRSLELHKFSQGVQNQGSPYDVLLIGLNDNRQDLYERINARVDKMMAAGLLDEAKWLYDNYPHAQATRGIGYKELFPYFAGDIGLEEAVEKIKQNTRRFAKRQLTWFKNRMAVSFYSVSDSDYKGKINQAVVDFLRNEGHHHHHH” is “soluble”; for “MYLVTGATGQLGLRVVRRCITLGLPVRAFVRLTSQYELLKEWGAEIFIGDLQQPRDIQAAMKGVEAVICCHGSQLLSRAIQAIDYRATLDVIQAAQEQGVRYLTLISPLAVTGDRQQSPFLKAKYEVEQVLISSGLNYSIFRCPTLMSSLLPLAERFQQTGVYIVLGDPQHRLQLLSPDDLARCILIASQASQPAIFSMAHPEVFTRQEIADRLGRFFNRRPFVMTVPLSVIDGARQFLGVMSRDLDASLGTLRTLLAYESLCPASEIERAQTYFQLSFESLETFLGRYFLEHHHHHH” it is “not soluble”.
The entry for “MKYTEIMVRYGELSTKGKNRKTFIMQLAQNVKRALADFPALKIHADRDRMHILLNGEDSEEVIPKLSKVFGIQNFSPSIRIEKEMPAIRAMVQEVVREVYTPGKTFKITAKRSDHSFELDSNGLNQELGGAVIEAIPEIQVQMKKPDINLRIEIRKDAAYLSYETIRGAGGLPVGTSGRGMLMLSGGIDSPVAGYLAMKRGVEVEAVHFASPPYTSEQALQKAKDLAEKLVPYVGTIQFIEVPFTEIQEEIKRVVPQGYLMTITRRLMLRLTDAIREMRKGLVIINGESLAQVASQTLQSMVAINEVTSTPIIRPVVSMDKTEIIEIAEKIDTFELAIQPFEDCCTIFAPPQPKTRPRLDKAQEYEARLDLEGLMARALEGLKITEISAETAKDKQEDEFADFL” is “not soluble”.
On to “MGSSHHHHHHSSGLVIRGSHMRIALMQHTARPLDPQHNLDLIDDAAARASEQGAQLLLTPELFGFGYVPSQICAQVSAEQVDAARSRLRGIARDRGIALVWSLPGPEGPEQRGITAELADEHGEVLASYQKVQLYGPEEKAAFVPGEQPPPVLSWGGRQLSLLVCYDVEFPEMVRAAAARGAQLVLVPTALAGDETSVPGILLPARAVENGITLAYANHCGPEGGLVFDGGSVVVGPAGQPLGELGVEPGLLVVDLPDQSQDAGSDSADYLQDRRAELHRNWL”, for which the “soluble on expression in E. coli” value is reported as “soluble”.
Turning to “WAALHEGLNIRQAEVHGMSQRGGAVQSHLRISDQELFADLIGLGTGDLILSVEPLEALRYLPYLAPDGRIVTSLDPFVNMTGYPPMEEIEAELGKTGRPVLVHAADLAKDAGSARASNMVMLGAGAPFAGIAPSKLEASIEALFSTKGQEVVDINIRAFRKGLQL”, the “soluble on expression in E. coli” value is “not soluble”.
The entry for “MDTIQKRPRTRLSPEKRKEQLLDIAIEVFSQRGIGRGGHADIAEIAQVSVATVFNYFPTREDLVDDVLNKVENEFHQFINNSISLDLDVRSNLNTLLLNIIDSVQTGNKWIKVWFEWSTSTRDEVWPLFLSTHSNTNQVIKTMFEEGIERNEVCNDHTPENLTKMLHGICYSVFIQANRNSSSEEMEETANCFLNMLCIYK” is “not soluble”; for “MGSDKIHHHHHHMKTMRKILEIDEERCNGCGLCVLDCAEGAIAIVDGKAKIVSDSFCDGLGACIGSCPQDALHIIEREAVPFDEEAAMEHVRSQGGTPEANHGHGHGAGTPHRHGQSAEHGGHGRIPGHGGCPGAAMRRFDSAESPAFAVAEGTVKGPGHWPLKIRLVPPTAPFLKGADVLVAADCAAAASPIFHSHFAAGKVVLIGCPKFDDTEAYAERLADILRVSGIASLTVLRMEVPCCRGLSAAAEKARVLSGTSLVLKEVIMTCAGGPAAPAPLSSL” it is “not soluble”; for “MGSDKIHHHHHHMINDHQYVADLHIHLGQTASNRPVKITAARTLTLENIIDYARTVKGIDIIGVIDCHVPEVLEGLKHSIESGEAYELKGGGIRFPDVTLILGTEIEVYDEESLGPVHVLAYTPTWNAMMELSSWMGSRMKNPTLSSQRLYETSIVLQQKVKELGGLFIPAHAFTPFKGVYGKGVKQSMGEIFDLALIDGIELGLSADTSMADQVEELHRFPFLSNSDAHSLEKLAREYQILHLYEPSFQAFQSALRDKDKCSIVANYGLNPYLGKYYETTCAQCRTPMKGSACETCGSSKVVKGVSERLTELATASENNGKQRPPYVHQIPLEFIPKVGKRTLARLREAFGTDMDILHQATFEQLCDVIPNHIAEAIVIAREGKATIKRGGGGHYGKMIGTE” it is “not soluble”.
The entry for “MFAMTSSAQSPLQQLGGTVVLAGAGKMGGALLTGWLAQGLDGGDVVVIEPHPTEEIAALSARGVRLNASAGDVGAVSTLVVAVKPQMFAEAAAALRGYVGPSTLVVSIMAGKPIAALSEQLGGHVVRAMPNTPAAIGRGITVAVAAGNVTAAQRGIADALLRATGGVEWVDDEALIDAVTAVSGSGPAYVFLLAEELARAGVEAGLPEGLAMTLARATVAGSGELLHRSDLDAATLRKNVTSPGGTTAAALEVLMANDGFRPLLTRAVAAATKRSKELAKAAALEHHHHHH” is “soluble”.
On to “GSHEHPEFLKAGKEPGLQIWRVEKFDLVPVPTNLYGDFFTGDAYVILKTVQLRNGNLQYDLHYWLGNECSQDESGAAAIFTVQLDDYLNGRAVQHREVQGFESATFLGYFKSGLKYKKGGVASGFKHVETQEKNPLPSKETIEQEKQ”, for which the “soluble on expression in E. coli” value was “soluble”.
As to “MGAEGRLYWDEGEGEGPYRLDRFRLLPAEGGFRLLWQGKGELPWPWARVRLRLFGKRLLRAHVEGEAHAAEEGGVLLPPFREALLEVEGLEHHHHHH”, the “soluble on expression in E. coli” value is reported as “not soluble”.
To “GPGSMSGTLLKEELLQLDNKRRSIMRDIEEAMTFLNSTPVGLRGSLVDSEGFPRDDCDLYAVRRARHTVNCGHNDLKSIEATIHEKLSQLHEECRGEAEEQMQRDKMKKKSEDDQRRRDEQKQVMSSKEPFVRVVDVATGSPAEEGGLICGHLIVQYGDVDAEKVLEGGFGEMARVTSSYEGQMLRVWVRSPSDDDCGGARELFIVPQRWRGEGLLGCTFEPMKLN” belongs “soluble”; to “MGSDKIHHHHHHMRLVLSGYYGFYNVGDEAILQSIIKALYEEEPTLELVVLSNDPDYTRKMYGVEAVNRWDIRAIYKEIKRSSGLISGGGSLLQDKTSIKSILYYTGIMRIARFLKKPYYIYAQGIGPITKRQNRLLVKWQVSKAEYISVRDEDSFLYLKEIGIKKDIELVPDPVLACQSEGMKSEWLQKHSIQGKVIAVSVRYWDAKEDYMKKLADTLKKFKRDGYHILFVPMHGPFDQNASRDIINLMGEEAHMLPYKLDIHEKISIFSECSLLIGMRLHALILSAVANIPMVGISYDPKVDSFLQQVNQPIIGNVDGDWTAETLYNVAMKQLEQKEYIQAKLEQRVEELREQISTASRYIISDLNSKEFKKENVEFHK”, “not soluble”.
The entry for “MFGYRSNVPKVRLTTDRLVVRLVHDRDAWRLADYYAENRHFLKPWEPVRDESHCYPSGWQARLGMINEFHKQGSAFYFGLFDPDEKEIIGVANFSNVVRGSFHACYLGYSIGQKWQGKGLMFEALTAAIRYMQRTQHIHRIMANYMPHNKRSGDLLARLGFEKEGYAKDYLLIDGQWRDHVLTALTTPDWTPGR” is “not soluble”.
For “MGSDKIHHHHHHMAAIAGLYVYPIKGLDSEHRSTATLRTHGQLHHDRTFTLVDSDTGSIVTAKRRPALHAFRTDYEPETGTLTVTDPDGQRASFSLGDDEGLSAAGDWFDSRLAVSVSMRSDPTGFVDRSDMGPAVVSTATLEAIADWFDSMTVAGARRRLRANIEIEGVPAFWEDRFVGDGAPAFEVGGVRFEGVTPCNRCVVPSRDPDTGEQLPEFRKTFCANRERTFPEWADGDAFDHEYAAMILARAPDISGGETLAVGDGVAVLDEAA”, the “soluble on expression in E. coli” value is “not soluble”.
To “MPEFRVWAPKPALVRLDVNGAVHAMTRSADGWWHTTVAAPADARYGYLLDDDPTVLPDPRSARQPDGVHARSQRWEPPGQFGAARTDTGWPGRSVEGAVIYELHIGTFTTAGTFDAAIEKLDYLVDLGIDFVELMPVNSFAGTRGWGYDGVLWYSVHEPYGGPDGLVRFIDACHARRLGVLIDAVFNHLGPSGNYLPRFGPYLSSASNPWGDGINIAGADSDEVRHYIIDCALRWMRDFHADGLRLDAVHALVDTTAVHVLEELANATRWLSGQLGRPLSLIAETDRNDPRLITRPSHGGYGITAQWNDDIHHAIHTAVSGERQGYYADFGSLATLAYTLRNGYFHAGTYSSFRRRRHGRALDTSAIPATRLLAYTCTHDQVGNRALGDRPSQYLTGGQLAIKAALTLGSPYTAMLFMGEEWGASSPFQFFCSHPEPELAHSTVAGRKEEFAEHGWAADDIPDPQDPQTFQRCKLNWAEAGSGEHARLHRFYRDLIALRHNEADLADPWLDHLMVDYDEQQRWVVMRRGQLMIACNLGAEPTCVPVSGELVLAWESPIIGDNSTELAAYSLAILRAAEPA” belongs “not soluble”; to “MSLDNIERTLGQLFEGRDFEKEYQGLKQQVLHYQPIQDFFKEHKEEVTEQLVNQNLSNLYEFMTQHKKFTEQEETLMPGYAPKLVLNGEFITVTYYPTKEKIEEDKRRAVERRIRSLYMPKQVVDANLADFYTDEESRQLALVEAYQFLNNYPPKSGERVKGLFIHGSFGTGKSYLLGALAKELALKGISSTLVYLPEFMREVKQSISDNTVGEKIQFAKETEVLMLDDIGAESMTAWTRDEVLGAILQFRMQEELPTFFSSNYNMDQLENHLMFAQNGTEEKLKARRIMERVRYLSKEVNLEGEGHHHHHH”, “soluble”; to “MTGFSISMDLAPKQSRSDRSTHEGTVEQRLKFFMQDVTGRALVMMESATQGQHGIAMDLVQEAFIALHKSYADKATDEWYPLFYTILNNKLQDWRRKEARRSNPFSFFKKVSLDSDEEVTDVVDETTPNPFEFLDQAVTIEEIQAAIAQLPVRQQQAFMLRAWEGFDTQTTAQIMNCSEGSVKTHYHRAIQGLRASLAHLNPSLGGSSDESR”, “not soluble”.
